Data: the supplement of paper PMC10598134
± gives the standard deviation.

Test: collision cross section of modified peptide (TIMS, N2, iRT-aligned); higher = larger / more extended gas-phase ion
Procedure, shortened: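 On a timsTOF Pro/HT (dda-PASEF, nitrogen, ~2.4 mbar), synthetic peptide pools were analysed after a 120-min nanoflow C18 separation at 60 °C and identified in MaxQuant. Three reference ions served for 1/K0 calibration, with run-wise alignment to the median iRT peptide deviation. Collision cross section comes from the Mason-Schamp equation, using the most abundant feature per charge state averaged over 1–3 technical replicates.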

[1] = charge state: 3, modification: Methyl (K)
[2] = charge state: 2, modification: Glutarylation
[3] = charge state: 3, modification: Glutarylation
[4] = charge state: 2, modification: GlyGly (K)
[5] = charge state: 3, modification: GlyGly (K)
[6] = charge state: 2, modification: Hydroxyproline
[7] = charge state: 3, modification: Hydroxyproline
[8] = charge state: 2, modification: Methyl (K)
[9] = charge state: 2, modification: Formyl
[10] = charge state: 2, modification: Crotonyl
[11] = charge state: 3, modification: Methyl (R)
[12] = charge state: 2, modification: Trimethyl (K)
[13] = charge state: 3, modification: Trimethyl (K)
[14] = charge state: 2, modification: Phospho (Y)
[15] = charge state: 2, modification: Butyryl
[16] = charge state: 2, modification: Malonyl
[17] = charge state: 2, modification: Succinyl
[18] = charge state: 3, modification: Malonyl
[19] = charge state: 3, modification: Formyl
[20] = charge state: 3, modification: Crotonyl
[21] = charge state: 2, modification: HexNAc (ST)

VFIGNLNTLVVKKK [_VFIGNLNTLVVK(Methyl (K))KK_]
collision cross section [1]: 483.02 ± 5.9 Å²

LGVATVAKGVCGACK [_LGVATVAK(Gluratylation)GVCGACK_]
collision cross section [2]: 422.53 Å² | collision cross section [3]: 500.02 Å²

GAEKTEVAEPR [_GAEK(GlyGly (K))TEVAEPR_]
collision cross section [4]: 384.75 ± 0.88 Å² | collision cross section [5]: 448.79 ± 1.6 Å²

GLPGEKGER [_GLP(Hydroxyproline)GEKGER_]
collision cross section [6]: 345.98 ± 0.8 Å² | collision cross section [7]: 396.91 ± 2 Å²

IQQELQTAKK [_IQQELQTAK(Methyl (K))K_]
collision cross section [8]: 376.86 ± 3.5 Å² | collision cross section [1]: 430.18 ± 6.1 Å²

YEQEHAAIQDKLFQVAK [_YEQEHAAIQDK(Biotin)LFQVAK_]
collision cross section (charge state: 3, modification: Biotin): 538 ± 1.6 Å²

IVSGKDYNVTANSK [_IVSGK(Formyl)DYNVTANSK_]
collision cross section [9]: 405.86 ± 0.56 Å²

IGNSYFKEEK [_IGNSYFK(Crotonyl)EEK_]
collision cross section [10]: 378.81 ± 0.89 Å²

SNEEGSEEKGPEVR [_SNEEGSEEK(Gluratylation)GPEVR_]
collision cross section [2]: 407.15 ± 0.96 Å² | collision cross section [3]: 470.21 Å²

FGSRGGPGGGFR [_FGSR(Methyl (R))GGPGGGFR_]
collision cross section [11]: 435.83 ± 3.2 Å²

DTPTSAGPNSFNKGK [_DTPTSAGPNSFNK(Trimethyl (K))GK_]
collision cross section [12]: 411.65 ± 1.2 Å² | collision cross section [13]: 457.6 ± 1.8 Å²

GADFLVTEVENGGSLGSKK [_GADFLVTEVENGGSLGSK(Methyl (K))K_]
collision cross section [8]: 494.56 Å² | collision cross section [1]: 538.26 Å²

VYPSSLSK [_VY(Phospho (Y))PSSLSK_]
collision cross section [14]: 344.53 ± 0.066 Å²

ITGKNQVTATK [_ITGK(Butyryl)NQVTATK_]
collision cross section [15]: 370.52 ± 0.71 Å²

GVEAVGSYAENQR [_GVEAVGSY(Phospho (Y))AENQR_]
collision cross section [14]: 388.79 ± 0.77 Å² | collision cross section (charge state: 3, modification: Phospho (Y)): 472.71 ± 0.98 Å²

DTPTSAGPNSFNKGK [_DTPTSAGPNSFNK(Butyryl)GK_]
collision cross section [15]: 412.93 ± 0.78 Å² | collision cross section (charge state: 3, modification: Butyryl): 464.51 ± 3.2 Å²

TVSKVDDFLANEAK [_TVSK(Butyryl)VDDFLANEAK_]
collision cross section [15]: 424.02 ± 0.86 Å²

ILDLKTGTVK [_ILDLK(Malonyl)TGTVK_]
collision cross section [16]: 359.66 ± 0.75 Å²

LGVPGLPGYPGRQGPK [_LGVPGLP(Hydroxyproline)GYPGRQGPK_]
collision cross section [6]: 416.79 ± 1.1 Å² | collision cross section [7]: 499.55 ± 1.2 Å²

ASNAAVKLAESK [_ASNAAVK(Succinyl)LAESK_]
collision cross section [17]: 372.84 ± 0.87 Å²

GTVPDDAVEALADSLGKK [_GTVPDDAVEALADSLGK(GlyGly (K))K_]
collision cross section [4]: 485.77 ± 1.3 Å² | collision cross section [5]: 534.99 ± 1.1 Å²

STGLELETPSLVPVKK [_STGLELETPSLVPVK(Trimethyl (K))K_]
collision cross section [12]: 461.73 ± 1.2 Å² | collision cross section [13]: 522.47 ± 0.88 Å²

DAIHFYNKSLAEHR [_DAIHFYNK(Malonyl)SLAEHR_]
collision cross section [18]: 505.96 ± 0.89 Å²

GSYLGGYSAGRGIYSR [_GSYLGGYSAGR(Methyl (R))GIYSR_]
collision cross section [11]: 481.98 Å²

TLDEILQEKK [_TLDEILQEK(Trimethyl (K))K_]
collision cross section [12]: 388.3 ± 0.013 Å² | collision cross section [13]: 439.75 ± 2.4 Å²

GFALVGVGSEASSKK [_GFALVGVGSEASSK(Formyl)K_]
collision cross section [9]: 409.61 ± 2 Å² | collision cross section [19]: 498.32 ± 1.8 Å²

PGNSGIR [_P(Hydroxyproline)GNSGIR_]
collision cross section [6]: 280.46 ± 3.1 Å²

LYLPVQNK [_LY(Phospho (Y))LPVQNK_]
collision cross section [14]: 343.68 ± 6.9 Å²

VGTASVLQPVKK [_VGTASVLQPVK(Methyl (K))K_]
collision cross section [8]: 392.83 ± 0.43 Å² | collision cross section [1]: 460.66 ± 3.8 Å²

PSVSTKLISK [_PSVSTK(Methyl (K))LISK_]
collision cross section [8]: 356.57 ± 0.35 Å² | collision cross section [1]: 424.71 ± 5.3 Å²

LQEKVESAQSEQK [_LQEK(Malonyl)VESAQSEQK_]
collision cross section [16]: 413.7 ± 1.6 Å² | collision cross section [18]: 504.23 ± 2.2 Å²

LQEKVESAQSEQK [_LQEK(Crotonyl)VESAQSEQK_]
collision cross section [10]: 419.55 ± 0.85 Å² | collision cross section [20]: 502.91 ± 1.6 Å²

ISEILLDHGAPIQAK [_IS(HexNAc (ST))EILLDHGAPIQAK_]
collision cross section [21]: 457.74 ± 0.56 Å² | collision cross section (charge state: 3, modification: HexNAc (ST)): 559.32 ± 1.1 Å²

ASNAAVKLAESK [_ASNAAVK(Trimethyl (K))LAESK_]
collision cross section [12]: 392.01 ± 0.62 Å² | collision cross section [13]: 456.46 ± 2.4 Å²

AAINQKLIETGER [_AAINQK(Gluratylation)LIETGER_]
collision cross section [2]: 412.05 ± 1.1 Å² | collision cross section [3]: 483.6 ± 2.4 Å²

IINEPTAAAIAYGLDKK [_IINEPTAAAIAYGLDK(Gluratylation)K_]
collision cross section [2]: 470.31 ± 1.8 Å² | collision cross section [3]: 565.52 ± 1.3 Å²

ALLQAKASGK [_ALLQAK(Dimethyl (K))ASGK_]
collision cross section (charge state: 2, modification: Dimethyl (K)): 351.53 ± 0.51 Å²

GADFLVTEVENGGSLGSKK [_GADFLVTEVENGGSLGSK(Trimethyl (K))K_]
collision cross section [13]: 548.47 ± 1.1 Å²

DFDTALKHYDK [_DFDTALK(Formyl)HYDK_]
collision cross section [9]: 397.93 ± 1.3 Å² | collision cross section [19]: 457.98 ± 2.1 Å²

AVPSSPAGSAARGR [_AVPSSPAGSAAR(Citrullination (R))GR_]
collision cross section (charge state: 2, modification: Citrullination (R)): 365.96 ± 0.94 Å² | collision cross section (charge state: 3, modification: Citrullination (R)): 481.37 ± 0.56 Å²

AGPNASIISLKSDK [_AGPNASIISLK(Acetyl (K))SDK_]
collision cross section (charge state: 2, modification: Acetyl (K)): 408.51 ± 3 Å²

TLTPASSPVSSPSK [_TLTPASSPVSSPS(HexNAc (ST))K_]
collision cross section [21]: 404.79 Å²

VFIGNLNTLVVKK [_VFIGNLNTLVVK(GlyGly (K))K_]
collision cross section [4]: 445.95 ± 1.4 Å² | collision cross section [5]: 487.11 ± 2 Å²

TFGKAAGPSLSHTSGGTQSK [_TFGK(GlyGly (K))AAGPSLSHTSGGTQSK_]
collision cross section [5]: 526.57 ± 0.59 Å²

TEVNSGFFYK [_TEVNSGFFY(Nitro (Y))K_]
collision cross section (charge state: 2, modification: Nitro (Y)): 367.43 ± 0.8 Å²

AGPNASIISLKSDK [_AGPNASIISLK(Methyl (K))SDK_]
collision cross section [8]: 413.97 ± 1.5 Å² | collision cross section [1]: 479.63 ± 3.4 Å²

ITESVAETAQTIK [_ITESVAET(HexNAc (ST))AQTIK_]
collision cross section [21]: 422.03 ± 0.75 Å²

GGFQNRGGGSGGGGNYR [_GGFQNR(Methyl (R))GGGSGGGGNYR_]
collision cross section [11]: 475.78 ± 6.5 Å²

VFIGNLNTLVVKK [_VFIGNLNTLVVK(Crotonyl)K_]
collision cross section [10]: 413.58 ± 0.34 Å² | collision cross section [20]: 479.51 Å²

VGIDTPDIDIHGPEGKLK [_VGIDTPDIDIHGPEGK(Dimethyl (K))LK_]
collision cross section (charge state: 3, modification: Dimethyl (K)): 537.38 ± 0.61 Å²

ISSNFSSIIAEKLR [_ISSNFSSIIAEK(Succinyl)LR_]
collision cross section [17]: 432.83 ± 0.84 Å² | collision cross section (charge state: 3, modification: Succinyl): 512.74 Å²

VFSIISSEKELK [_VFSIISSEK(Biotin)ELK_]
collision cross section (charge state: 2, modification: Biotin): 432.12 ± 1.1 Å²

GSLEKGSPEDK [_GSLEK(Formyl)GSPEDK_]
collision cross section [9]: 358.29 ± 0.88 Å²

DVFISAAER [_DVFIS(HexNAc (ST))AAER_]
collision cross section [21]: 363.87 Å²

KVQFAPEK [_KVQFAP(Hydroxyproline)EK_]
collision cross section [6]: 331.99 ± 1.4 Å²
